Experiment: yeast display, Sf9 membrane polyspecificity reagent, FACS + sequencing; frameworks hold sequencing errors
Method in brief: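 A synthetic nanobody library was expressed on Saccharomyces cerevisiae BJ5465 by galactose induction for 36–48 hours. The library was stained for 1 hour at 4 °C with 10% biotinylated, detergent-solubilized Sf9 membrane reagent and enriched with streptavidin microbeads before FACS. Low and high (top ~1%) gates were set on anti-HA fluorescence for expression and streptavidin fluorescence for reagent binding, and each polyreactivity label reflects the gate of origin.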

Row | Sequence | polyreactivity (PSR sort gate)
1 | QVQLVESGGGLVQAGGSLRLSCAASGFTSNEYAMGWYRPAAGTERELVAAISKSGGRTYYADSVKGRFTISRDNAKNTVYLQMNSLKPEDTAVYYCGKRRNTTYYAGGFDYWGQGTKVTVSS | high polyreactivity
2 | QVQLVESGGGLVQAGGSLRLSCAASGSIILHYAMGRYRHAPRKERELVAVIRGGGSTNYADSVKGRFTISRDNAKNSVYLQMNSLKPEDSAVYYCAADYEAYRYDFWGQGTQVTVSS | high polyreactivity
3 | QVQLVESGGGLVQAGGSLRLSCAASGRIFTWYAMGWYRTAPGKERELVATITGDGNTYYADSVKGRFTISRDNAKNTVYLQMKSLKPEDTAVYYCNRYGYFRYRWGKYEYWGQGTQVTVSS | high polyreactivity
4 | QVQLVESGGGLVQAGGSLRLSCAASGFIFRYYAMGWYRQEPGKERELVAAITSRGSSTYYADSVKGRFTISRDNAKNTVYLQMNSLKPEDTAVYYCAARLRGDYVRYDYWGQGTQVTVSS | high polyreactivity
5 | QVQLVDSGGGKVQAGGSLRLSCAASGRTFLVYAMGWYRQAPGKERELVAAISRSGGRTSYADSVKGRFTISRDNAKNTVYLQMNSLKPEDTAVYYCAASGPPCDMDYWGQGTQVTVSS | high polyreactivity
6 | QVQLVESGGRLVQAGGSLRLSCAASGFIFDSYAMGWYRQAPGKERELVAAISWSGGRTYYADSVKGRFTISRDNAKNTVYLQMNSLKPEDTAVYYCNVRTKLSTSYDYWGQGTQVTVSS | high polyreactivity
7 | QVQLVESGGGLVQAGASLRLSCAASGSIFAAYTMGWYRQAPGTERELVAAISVSTVSTYYADSVKGRFTISRDNAKNTVFLQMNSLKAEVTAVYYCNADATDSYTEKDEHDSWGQGTQLTVSS | low polyreactivity
8 | QVQHVESGGGLVQARGSLRLSCAASGSIFFNTMGWYSQAPGKERELVAAITWSGGRTYYADSVKGRFTISRDNAKNTVYLQMNSLKPEDTAVYYCAKDQGSWRYDYWGLGTQVTVSS | low polyreactivity
9 | QVQLVDSGGGLVQAGGSLRLSCAASGRTFYRNAMGWYRQAPGKVRELVAGISSGGFTYYADSVKGRFTITRDNAKNTFYLQMNSLKPEDTPVYYCAASAWSGYWFDYWGQGTQVTVSS | high polyreactivity
10 | QVQLVESGGGLVQAGGSLRLSCAASGRTFRAYAMGWYRQAPGKERELVAAITSGGSTYADSVKGRFTISRDNAKNTVYLQMNSLKPEDTAVYYCAADGYKLFYSKFRYVQYGYWGQGTQVTVSS | high polyreactivity
11 | QVQLVESGGGLVQAGGSLRLTCAASGFTFDTYAMGWYRQAPGKEREFVATISRNSGSTYYADSVKGRFTIARDNAKNTVYLQMNSLKPEDTAVYYCNRRRYGRKSDRMNYWGQGTQVTVSS | high polyreactivity
12 | QVQLVESGGGLVQAGGSLRLSCAASGSTLYYYAMGWYRQAPGKERELVASITKSGASTYYADSVKGRFTISRDNAKNTVYLLMNSLKPEDTAVYYCAADVGAIYDNAENGYWGQGTQVTVSS | low polyreactivity
13 | QVQLVESGGGLVQAGGSLRLTCAASGGTFYANAMGWYRQAPGTERELVAAITSGGSTNYADSVKGRFTISRDNAKNTVYLQMNSLKPEDTAVYYCNAAAQRRYWHSYFRRYDYWGQGTQVTVSS | low polyreactivity
14 | QVQLVESGGGLVQAGGSLRLSCAASGNTFYIYAMGWYRQAPGKERELVAAISRGGGSTYYAESVKGRFTISRDNAMNTVYLQLNSLKPEDTAVYYCAADYYYSRYDYWGQGTQVTVSS | high polyreactivity
15 | QVQLVESRGGLVQAGGSLRLSCAASGSICYRYAMGWYRQAPGKERELVAAISYSGGSTYYADSVKGRFTISRDNAKNTVYLQMKSLKPEDTAVYYCAKDYPPPISDYSRYYGYGYWGQGTQVTVSS | low polyreactivity
16 | QVQHVESGGGLVQAGGSLRLSCAASGRIIRGNVMGWYRQAPGKERELVATITSSARTYYADSVKGRFTISRDNAKNTVYLQMNSLKPEDTAVYYCANKQPRYRLRMNYWGQGTQVTVSS | high polyreactivity
17 | QVQLVESGGGLVQAGGSLRLSCAASGSIFSQYLMVWYRQAPGKERELVAAISWSGGHTYYADSVKGRFTISRDNAKNTVYLQMNSLKPEDTAVYYCATVPRKTPGNAELDYWGHGTQVTVSS | high polyreactivity
18 | QVQLVESGGGLVQSGGSLRLSCDASGITFKYAMGCYSQAPWKESELVAAISWSGGRTYYADSVKGRFTISRDNAKNTVYLQMNSLKPEDTAVYYCNAYRRYNDEDYWGQGTQVTVSS | high polyreactivity
19 | QVQLVESGGGLVQAGGSLRLSCAASGRTITRNAMGWYRQAPGKERELVASINRGGITYYADSVKGRFTISRDNAKNTVYLQMNSLKPEDTAVYYCATRPWRSPWGYYDYWGQGTQVTVSS | high polyreactivity
20 | QVQLVESGGGLVQAGGSLRLSCAASGFISFDNAMGWYRQAPGKERELVAAIRSGGSTNYADSVKGRFTISRDNAKNSVYLQMNSLKPEDTAVYYCAALDQYGYYQKYYYWGQGTQVTVSS | low polyreactivity
21 | QVHLVESGGGLVQAGGSLRLSCAASGRIFNSYAMGWYRPAPGKERELVAAINWTDVSTYYADSVKGRFTLSRYNAKNTVYVELNSLTPDDTAVYYGPDVRWGSYTLSDDYWGQGTQVTVSS | low polyreactivity
22 | PVQLVESGGGLVQAGGSLRLSCADSGSIFRKYARGWYRQAPGKERELVAAITYGGSSTYYADSVKGRFTISRDNAKKTVYLQRNSLKPQDTAVYYFINDRPSYPAYGHTQYVVQMDYWGQGTQVTVSS | low polyreactivity

Row | Sequence | polyreactivity (PSR sort gate)
23 | QVQLVESGGGLVQAGGSLLLTCAASSSTFRPKVMGWYRQAPGKERELVAAISNGGRTYYADSLKGRFTISRDNAKNTVYLQMNSLKPEDTAVYYCAARGKTTKYNYWGQGTQVTVSS | high polyreactivity
24 | QVQLVESGGGLVQAGGSLRLSCAASGSIFGRYAMGWYRQAPGKERELVAAISYSNARTYYADSVKGRFTISRDNAKNTVYLQMNSLKPEDTAVYYCAVLRRYLVGNLVGYNYWGQGTQVTVSS | high polyreactivity
25 | QVQLVESGGGLVQAGGSLRLSCAASGSTFSFYAMGWYRQAPGKERELVAAISRSGGRTYYADSVKGRFTISRDNAKNTVYLQMNSLKPEDTAVYYCAVEVTHYIHYYYWGQGNQVTVSS | high polyreactivity
26 | QVQLVESGGGLVQAGGSLRLSCAASGRILRFYAMGWYRQAPGKERELVATISRSGGSTYYAESVKGRVTISRDNAKNTVDLQMNSLKPEDTAVDYCNAKFKGVSYKMDYWGQGTQVTVSS | high polyreactivity
27 | QVQLVESGGGLVQAGGSLRLSCAASGGIFGANSMGWYRQAPGKERELVATITRGGSTNYADSVKGRFTISRDNAKNTVYLQMNSLKTEDTAVYYCAARFYSRAFWPAYYYWGQGTQVTVSS | high polyreactivity
28 | QVQLVESGGGLVQAGGSLRLSCAASGSTFYHYAMGWYRQAPGKERELVAAISWSGGSTYYADSVKGSFTISRDNAKNTVYLLMYSLKPEDTAVYYCNALLSGLTSTEYDYWGQGTQVTVSS | high polyreactivity
29 | QVQLVESGGGLVQAGGSLRLSCAASGSIFGYYAMGWYRLAPGKERELVAAINWRGTSTYYADSVKGRFTISRDNAKNTVYLQMISLKPEDTAVYYCAARRSVGGYGYWGQGTQVTVSS | high polyreactivity
30 | QVQLVESGGGLVQAGGSLSLRCAGSGRTFRTYTMGWYRQARGKERELVAAISWSGSSTYYADSVKGRVTISRDHAKNTVYLQLNSLKPEDTAVYYCAARYVSRRFLGYYYWGQGTQVTVSS | high polyreactivity
31 | QVQLVESGGGLVQAGGSLRLSCAASGSTFGRNALGWYRQAPGKERELVASISWGGGSTYYADSVKGRFTISRDNAKNTVYLQMNSLKPEDTAVYYSNARRFLWSQLSGSFSYDYWGQGTQVTVSS | high polyreactivity
32 | QVQLVESGGGLVQAGGSLRLSCAASGRIFVYYAMGWYRQAPGKERELVAAITASGASTYYADSVKGRFTISRDNAKNTVYLQMNSLKPEDTAVYYCNVLYPRKYWQVREYYWGQGTQVTVSS | high polyreactivity
33 | QVQLVESGGGLVQAGGSLRLSCAASGRTFRYNAMGWYRQAPGKERELVASIRRGGSTNYADSVKGRFTISRDNAKNTVYLQMNRLKPEDTAVYYCAAGGYYWGQGTQVTVSS | high polyreactivity
34 | QVQIVDSGGGLVQAGGSLRLSCAASGRIIPANAMGWYRQAPGKERELVAAIDYDGGSTYYADSVKGRFTISRDNAKNTVYLQMNSLNPEVTAVYYCAADFYDYEGSYYDYYWGQGTQVTVSS | high polyreactivity
35 | QVQLVESGGGLVQAGGSLRLSCAASGSTFIEYAMGWYRQAPGTERELVAGITTSSGRTSYADSVKGRFSISRDNAKNTVYLQMNSLKPEDTAVYYCAADIYYYSPYDSFWYSEVDYWGQGTQVTVSS | low polyreactivity
36 | QVQLVESGGGLVQAGGRLLLSCAASGSTFTHYAMGWYRQAPGKERELVPAISWGAGSTYYADSVKGRFTNSRDNAKNTVYLQMNSLKPEDTAVYYCAAYLYRYGHKYYSWGQGTQVTVSS | high polyreactivity
37 | QVQLVESGGGLVQAGGSLRLSCAASGITFRYYAMGWYRQAPGKERELVAAISDGGSTNYADSVKGRFTISRDNAKNTVYLQMNSLKPEDTAVYYCDADYRYLFDYWGQGTQVTVSS | high polyreactivity
38 | QVQLVESGGALVQAGGSLRLSCAPSGRIFDFKAIGWYRQAPGKEREFVAAITWGGGSTYYADSVKGRFSISRDNAKNSVYLPMNSLKPEVTAVYYCAADGWYYYQSWFNFGMDYWGQGTQVTVSS | low polyreactivity
39 | QVQLVESGGGLVQAGGSLRLSCAASGFISAYYAMGWYRQAPGKERELVAAISWNGGRTFYADSVKGRFTISRDNAKNTVYLQMNSLKPEDTAVYYCAADGRLRGYGYWGQGTQVTVSS | high polyreactivity
40 | QVQVVESGGGLVQAGGSLRLSCAASGRTYRSNAMGWYRQAPGKERELVAAIRTSGGSTYYADSVKGRFTISRDNAKNTVYLQMNSLKPEDTAVYYCNAELRDLEFDYWGQGTQVTVSS | low polyreactivity
41 | QVQLVESGGGLVQAGGSLRLSCAASGFIFTFYALGWYRQAPGKEREFVASIDWGDGSTYYADSVKGRFTISRDNAKNTVYLQMNSLKPEDTAVYYCAHDYDGYVWDTEYDYWGQGTQVTVSS | low polyreactivity
42 | QVQLVESGGGLVQAGGSLRLSCAASGRIFTDNVMGWYRQAPGKERELVAAITRRGGSTYYADSVKGRFTISRDNAKNTVYLQMNSLKPEDSAVYYCNARGRLYGHLYDYWGQGTQVTVSS | low polyreactivity
43 | QVQLVESGGGLVQAGGSLRLSCAASGSTFYYNAMGWYRQAPGKERELVAAISRSGGRTYYADSVKGRFTISRDNAKNTVYLQMNSLKPEDTAVYYCAADAPGHEYYYWGQGTQVTVSS | high polyreactivity
